# Measurements taken from the DeepSol protein solubility set.
# Test: soluble on expression in E. coli; label from the status in PepcDB or PDB records
row,Sequence,soluble on expression in E. coli
1,MLTFLIPTAKEMTIPKESHPHLLPQDSQAILKIMAAMTTEDLAKSYRIKEESAKKEQQRWQDMASQQSLAYPAYQLFNGLMYRHIKRDKLTTQEQAYLTQQVYITSSFYGIIPANHPIAEHRHDFHTRIKIEGQSLKSYWRPCYNQFAKEHPQVISLLSSEFDDVFSKDCKQLWISPKFMAEKEGQFKTHSTISKKARGAFLTACMENNCQTVDSLKSLVFAGFYYHPDLSTDHEFVYIKKEA,not soluble
2,MSLSWYEEWFWSDAYTRVYDHRDDAEAEQLVDLIEHEIAPASGAHILDIGCGRGRHARALVRRGWQVTGLDLSEDAVAAARSRVADDDLDVRASFRVGDMRTPVCDGCADGVVNLFTSFGYFDADAENERALAAMATALRPGGWFLQDFLNAPQVAESLGASVYETEDGRTIHQDRWIEDGRVNKKITVRQNGHTETFQESVRLYTRSDLTAMYERVGLEVVALFGDYDGGNYVPDESPRLLLHAVRPTEGHHHHHH,soluble
3,MSQILNVTLITETFTPEINGVANTLGRLCDGLRLRGHRVELVRPRQSDEINSGAADDLMLCRGWPIPGYPGLQWGQSSMHKLLRRWQRRRPDVLYIATEGPLGLSALRAARRLGIAVISGFHTNFPQYTQQYGMGFITRLLTHYLRWFHNRSRVTLVPSVSQKVELERRGFERIELLSRGVDSQLFNPSRCSQALRESWGLQTGDIGVIHVGRLAPEKNLGLLKTGFEALKSSYPQRTIKLIVVGDGPQRSELEQQIPDAIFCGTLRGEVLATHYASADMFLFPSLTETFGNVVLEALASGLGVVAYDEAAAGQHIRHGHNGALAMPGDETAFVDAARWLLEDSENLRRVRLNARQHASRQGWTAIIDQFERQLRDACPSESSKTLRQTSDKTIRPVSSMPLDLEHHHHHH,not soluble
4,MVRKLKTHEQKLLKKTDFMSWQVDQQGKQGDMLRKFYVKKREHYALYNTLAAKSREVADLIKNLSESDPFRSKCTEDMLTKFYAAGLVPTSDTLERIGKVTGASFARRRLPVVMRNIGMCESVKTASDLVEQGHVRIGTKLVTDPAFMVTRSSEDMITWTKASKIKKHVMDYNNTRDDFDLMD,not soluble
5,MGSSHHHHHHSSGLVPRGSHMLKFDVNTSAVQVLIEHIGNLDRAYEFAERCNEPAVWSQLAKAQLQKGMVKEAIDSYIKADDPSSYMEVVQAANTSGNWEELVKYLQMARKKARESYVETELIFALAKTNRLAELEEFINGPNNAHIQQVGDRCYDEKMYDAAKLLYNNVSNFGRLASTLVHLGEYQAAVDGARKANSTRTWKEVCFACVDGKEFRLAQMCGLHIVVHADELEELINYYQDRGYFEELITMLEAALGLERAHMGMFTELAILYSKFKPQKMREHLELFWSRVNIPKVLRAAEQAHLWAELVFLYDKYEEYDNAIITMMNHPTDAWKEGQFKDIITKVANVELYYRAIQFYLEFKPLLLNDLLMVLSPRLDHTRAVNYFSKVKQLPLVKPYLRSVQNHNNKSVNESLNNLFITEEDYQALRTSIDAYDNFDNISLAQRLEKHELIEFRRIAAYLFKGNNRWKQSVELCKKDSLYKDAMQYASESKDTELAEELLQWFLQEEKRECFGACLFTCYDLLRPDVVLETAWRHNIMDFAMPYFIQVMKEYLTKVDKLDASESLRKEEEQATETQPIVYGQPQLMLTAGPSVAVPPQAPFGYGYTAPAYGQPQPGFGYSM,soluble
6,MGSDKIHHHHHHMRFGLDLGTTRTIAAAVDRGNYPIVTVEDSLGDTHDFIPSVVALKADRIVAGWDAIEVGQDHPSFVRSFKRLLSEPNVTEATPVYLGDHVHPLGAVLEAFAENVVTALRAFQTQLGDTSPIEVVIGVPANSHSAQRLLTMSAFSATGITVVGLVNEPSAAAFEYTHRHARTLNSKRQAIVVYDLGGGTFDSSLIRIDGTHHEVVSSIGISRLGGDDFDEILLQCALKAAGRQHDAFGKRAKNTLLDESRNAKEALVPQSRRLVLEIGDDDITVPVNKFYEAATPLVEKSLSIMEPLIGVDDLKDSDIAGIYLVGGGSSLPLVSRLLRERFGRRVHRSPFPSGSTAVGLAIAADPSSGFHLRDRVARGIGVFREHDSGRAVSFDPLIAPDTDSATVAKRCYKAVHNIGWFRFVEYSTVSEDGSPGDISLLSEIKIPFDSSITDVDATEISRFDGPEVEETITVNDNGVASISIKILGGVTVEHTI,not soluble
7,MAHHHHHHMPLTCRSFCEWALAYMGTQEYTPSIIQQRNSMAAAERDPDDRNVLDFSTYEDYLDQQVTGEDLFYLEDQDAARKIVELGYKGKDVLSREEFEAAQYLARTGPLKRRESAEVITSAGKDVSDSPLLTALAKREELVRTGKLATVLFLRDYVSGQEVSAYIDYGYRLRSENFEAYFKKDKKLLPKRSDLSYYNWKTHTLFYNNSPTFQVLADSTLGLVMKHKRDRKAIHVDPNSPSPGENCSRTVVPCKDYLQAVIYDHVTRRKN,soluble
8,MGHHHHHHGGHMSLVRITWCPGCGNFAILKAFERASRRVIEEGFDIAVSSGIGCHGKISDYLSLPGFHVIHGRVPPFLTGLKLANPNLVVVGFSGDGDGLNEGVEHLVHAARRNTDITIILHNNGVFGLTTGQVTATSPRGRKSRSTPRGNPEYPLNPCHLMLVSGATFVARVFAGEQERLSEVFYNAMKHKGFSFVEVMQPCVSFNNFWEMRKEIYWIERSSDLLEAMKNCSDAKACGIFYAEEKETYEDAVWKSTFEGGS,soluble
9,MGSDKIHHHHHHMEIKQLKEGLEGKVDFSLEYLREKPRQRAHMVASLLDDFFQPLSQHVLLEERISIMIRRGYVSRNLQDGSLNQHLQNGYERVMSGSLQSYKFRNVLTTATCLSLIGCSGSGKSSTLDRILATYPQVIYHEKHNFFQLSYLKIECPNNGSQQSLCLNFFREVDKRLGTKYESDYGGKRHGVPTLLALMSQVANQRAIGVLVIDEIQRLKIRKAVGREQMLEFFVELVNTVGIPVILVGTPKARPLFEIELQSARRTTGIGSLYWQPMPQYPDNPAERSEWEAFTNKLWRYQWLTRRDEVLTDEIRDCWYELSQGVLDIVVKLFVLAQLRAIASKLERITVKVLRSVYETELKPVHPMLHAIRRGNPNLIAKYSDLRIEDIDKRLLTLHQKIQALPEEPELPFSNNEQAMRLYNLLVQMDCRSDLLIPLVEKIFIERPKLTLRNMMPIVLEWYENGKEQPTNAPKPAKAALVKRTDWNTLESDDLRFIYSQVGKSESIYEALKDNGLVLDLKKVN,not soluble
10,MGHHHHHHGSLVPRGSRAYSFKVVLLGEGCVGKTSLVLRYCENKFNDKHITTLQASFLTKKLNIGGKRVNLAIWDTAGQERFHALGPIYYRDSNGAILVYDITDEDSFQKVKNWVKELRKMLGNEICLCIVGNKIDLEKERHVSIQEAESYAESVGAKHYHTSAKQNKGIEELFLDLCKRMIET,soluble
11,HKPWRAEYAKSSRSSCKTCKSVINKENFRLGKLVQSTHFDGIMPMWNHASCILKKTKQIKSVDDVEGIESLRWEDQQKIRKYVESGAGSNTSTSTGTSTSS,soluble
12,MEIKRILVSRTDKIGDLVLSIPSFFMLKKMYPNAELVVIVRKYNVDIVKNLPYIDRIVIIDEYSKAELLEKIAYFKADVFIALYNDSYIASLARASKAKIKIGPISKLSSFFTYNKGVLQKRSLSLKNEGQYNLDLVTKLDRKRFAILYELNTKLEHHHHHH,soluble
13,MEKQQDLPFPYEFRELNPEEDKLVKANLGAFPTTYVKLGPKGYMVYRPYLKDAANIYNMPLRPTDVFVASYQRSGTTMTQELVWLIENDLNFEAAKTYMSLRYIYLDGFMIYDPEKQEEYNDILPNPENLDMERYLGLLEYSSRPGSSLLAAVPPTEKRFVKTHLPLSLMPPNMLDTVKMVYLARDPRDVAVSSFHHARLLYLLNKQSNFKDFWEMFHRGLYTLTPYFEHVKEAWAKRHDPNMLFLFYEDYLKDLPGCIARIADFLGKKLSEEQIQRLCEHLNFEKFKNNGAVNMEDYREIGILADGEHFIRKGKAGCWRDYFDEEMTKQAEKWIKDNLKDTDLRYPNMEL,soluble
14,AHHHHHHGSKARIIYRASFDAAHAVKIEEWEELHGHTFSLEVVVEGEIKKGYVMDFLKLKKVVDGVVKELDHRNLNKIMDNPTTENIALWISERIRKNLPGDVKLKRLSLWEGNEFGVELEW,soluble
15,EMTDLQSTHKNFLFEIEEVGIKNLTYPVLIDQYQTAGLFSFSTSLNKNEKGINMSRILESVEKHYDNGIELEFNTLHQLLRTLQDKMNQNAAGVDVSGKWFFDRYSPVTNIKAVGHADVTYGLAIENHTVTRKELTIQAKVTTLCPCSKEISEYSAHNQRGIVTVKAYLDKNNDVIDDYKDKILDAMEANASSILYPILKRPDEKRVTERAYENPRFVEDLIRLIAADLVEFDWIEGFDIECRNEESIHQHDAFARLKYRK,not soluble
16,MTQIARIRDNTSERRLQAERLIGARALQEAQALRFSVFSEEFNARLKGAEQGLDIDDYDIHCSHIGVRDLNTGRLVATTRLLDHKAANTLGSFYSEEEFSLHGLAHLQGPILELGRTCVDPAYRNGGTIAVLWSELAEVLNEGGYSYLMGCASIPMQDGGIQAHAIMQRLRERYLCNEHLRAEPKNPLPTLDIPSNVICEMPPLLKAYMRLGARICGEPCWDEDFQVADVFILLKRDDLCPRYARHFKAAV,not soluble
17,MLNSKPVSYQVLKFILKHLDPSLRIQLCLVCPSIHTLEKSTPSYIHYLKITDNSVTVNRVTCQITVTDRKVDYQFDINQFPSISGTVELRNSRNNLTKTMKYLLDKLFKGRTVKVGQLAISCENPLRVPLAARINVNVLEVFDSRSLSAASSLIANSCLPLSLIKLPFKSLLKTNNNPITSIVNRKTKKWHFKAPTTAPHNLRRVLTFLQNRRVTTAHFERGHFCFSIVIEYFMGDSDIENGTYYTFDTTRGAVFVVMERSRKRYKAMLEDGSSRRSNQLTIKKNSTSKLVISKIQQGDAWILGFKIERRRLFPTFF,not soluble
18,MGSDKIHHHHHHMNSGGYMAIPPGAILPESLPEFKIFMRNREGKYVLWAADGNRVTVAQLAKLSESGVQDVFVDIEESFKYEQYLEANLGKILDNQGITVDRKAAIFSRVSTNVVKAAFETSLKSGAMGMETLQRTQKMIENAMKFITDSNSLPALAKMIGHDYETYEHAMKVTWWTVAFISENPEILTYCQKDEISDAEQISETLRSCGVCALLHDIGKAYVPQEVINKNGPLTEIEWEIMKRHPLSGLAMLLDSELPAFVKKAIVQHHEDFDGGGYPMNLEGTNITVLARVLRIMDVFDAMTSRRPYKDPLSPMKVIQIMIGTPSHPEDNAEPAQDPRDRGMGRCFDHELLGKFIIFIGNVKLD,not soluble
19,EKELLDNFKKNITQYAKQLEISIEKVYDEKGSVNAQKDIQNLLSEYANRQEIGEIRFIDKDQIIIATTKQSNRSLINQKANDSSVQKALSLGQSNDHLILKDYGGGKDRVWVYNIPVKVDKKVIGNIYIESKINDVYNQLNNINQ,not soluble
20,MNQSDVLSNSMKQATINNEAHVIIDDIDTAHKELDILQQEVDKVIFGQNHVIEYALTSILAGGHALLVGVPGLAKTRLVETLGIVLGLDEKRIQFTPDLMPSDIIGSEIMDSDKSGKRSFRYLQGPIFTQLLMADEINRASPRTQSALLQAMQEYHVTVAGTRYDLPQPFHVLATQNPLEQEGTYPLPEAQLDRFLMQIDIDYPDLTTERRIILDTTGGKNQNAKPVLSAKTLQKIQKIVRKMPISENVVEAILKLVRSARPHKENSLANTYVAWGPGPRASQALSLCARARALYHGRLSPSLDDIATLACPVLQHRMALNFSARAENITIKDIIDNLVKDAL,not soluble
